B1: TS-PTDH: 16× thermostable variant of Pseudomonas stutzeri phosphite dehydrogenase (SEQ ID NO:2), engineering template (protein, listed as Pseudomonas stutzeri)
chain: MLPKLVITHRVHEEILQLLAPHCELITNQTDSTLTREEILRRCRDAQAMMAFMPDRVDADFLQACPELRVIGCALKGFDNFDVDACTARGVWLTFVPDLLTVPTAELAIGLAVGLGRHLRAADAFVRSGKFRGWQPRFYGTGLDNATVGFLGMGAIGLAMADRLQGWGATLQYHEAKALDTQTEQRLGLRQVACSELFASSDFILLALPLNADTLHLVNAELLALVRPGALLVNPCRGSVVDEAAVLAALERGQLGGYAADVFEMEDWARADRPQQIDPALLAHPNTLFTPHIGSAVRAVRLEIERCAAQNILQALAGERPINAVNRLPKANPAAD
B2: wild-type PTDH: wild-type phosphite dehydrogenase enzyme, literature TTN with NAD^+ (protein, UniProt O69054 1-336, looked up)
Phosphonate dehydrogenase: MLPKLVITHRVHDEILQLLAPHCELMTNQTDSTLTREEILRRCRDAQAMMAFMPDRVDADFLQACPELRVVGCALKGFDNFDVDACTARGVWLTFVPDLLTVPTAELAIGLAVGLGRHLRAADAFVRSGEFQGWQPQFYGTGLDNATVGILGMGAIGLAMADRLQGWGATLQYHEAKALDTQTEQRLGLRQVACSELFASSDFILLALPLNADTQHLVNAELLALVRPGALLVNPCRGSVVDEAAVLAALERGQLGGYAADVFEMEDWARADRPRLIDPALLAHPNTLFTPHIGSAVRAVRLEIERCAAQNIIQVLAGARPINAANRLPKAEPAAC

Tests used:
[1] = Specific activity of TS-PTDH variants with NMN^+; format: biochemical; conditions: 100 mM MOPS pH 7.25, 10 mM sodium Pt, 4 mM cofactor, 25° C.
Protocol: (§1) Purification and Characterization of TS-PTDH Variants. The E. coli BL21(DE3) strains harboring pQElac plasmids encoding the TS-PTDH or TS-PTDH variants were grown in 2×YT media with kanamycin and ampicillin at 37° C. The IPTG-inducible expression, Ni-affinity purification, and protein concentration determination was conducted as described above.
The specific activities of TS-PTDH and variants were measured with the following methods. Briefly, the reaction mixture contained 100 mM MOPS buffer, pH 7.25, 10 mM sodium Pt, and 4 mM cofactor (NAD^+, NADP^+, or NMN^+). The formation of reduced coenzyme was measured by light absorption at 340 nm in a 96-well plate at 25° C. Absorption was correlated to a molar basis using the extinction coefficient (ε) of 6.22 mM^−1 cm^−1 for each cofactor.

[2] = Steady-state kinetics of TS-PTDH variants with NAD^+; format: biochemical; conditions: 100 mM MOPS, pH 7.25, 10 mM sodium phosphite, varied cofactor concentrations; n = 3
Protocol: as §1
(§2) The steady-state kinetic parameters toward the coenzymes were measured by spiking purified protein into a 100 μL reaction mixture containing 100 mM MOPS, pH 7.25, 10 mM sodium Pt, and varied cofactor concentrations from 0.02 mM to 5 mM at 25° C. The kinetic parameters were measured by monitoring the […] of reduced coenzyme at 340 nm. Data were fitted to the Michaelis-Menten equation to generate estimates of KM and kcat values.

[3] = system: E. coli SHuffle strain; assay: Recapitulation of growth restoration with TS-PTDH variants in SHuffle strain; format: cell-based, Escherichia coli; conditions: spotted onto agar selection plates
Protocol: Selection of TS-PTDH Library. A total of 50 μL pre-made SHuffle/pLZ311 or SHuffle/pLZ312 electro-competent cells were transformed with 2 μL TS-PTDH A155N-E175-A176-L208 NNK library DNA (pLZ316) via electroporation as described above. After rescue in SOC media for 1 h, cultures were combined in 10 mL 2×YT with 10 g/L glucose, 0.5% arabinose, kanamycin and ampicillin. 0.2, or 1 μL of culture was immediately taken from the culture and plated on an 2×YT agar plates with kanamycin and ampicillin. The plate was incubated at 37° C. overnight, and the number of colonies formed was counted to estimate the library size. The liquid cultures were incubated at 37° C. with shaking for 10 h. Cells (1 mL) were washed 3 times and re-suspended in M9 Buffer. Targeted serial dilutions of cells were prepared in M9 buffer and 5 μL aliquots were dispensed in series on an agar plate of M9 selection media containing 0.5 mM diamide, 5 or 1 g/L yeast extract, 10 g/L glucose, 0.5% arabinose, 0.5 mM IPTG, 10 g/L sodium phosphite, kanamycin, ampicillin, and 5 mM NMN^+. Selection plates were incubated at 37° C., and photographs were taken to document growth progress. The independent transformants sampled was calculated as 2.4×10^6 and 2.5×10^6 colonies when plated on 5 and 1 g/L yeast extract, respectively. TS-PTDH and the template of the library, TS-PTDH A155N, were cultured in the same conditions as controls. The colonies were numbered by the order of appearance. The selected cells were re-streaked on fresh agar plate with identical media and incubated until single colonies formed on the plate. Variants that cannot forma single colony may be false positives. After extracting the plasmids from each re-streaked colony, the chosen TS-PTDH variants were amplified and moved into the pQElac vector containing a N-terminal 6×His tag for protein purification and characterization. […] 2 μL of a serial dilution of cells were deposited onto a growth selection plate and grown at 37° C.

[4] = Steady-state kinetics of TS-PTDH variants with NMN^+; format: biochemical; conditions: enzyme could not be saturated; 100 mM MOPS, pH 7.25, 10 mM sodium phosphite
Protocol: as §1, §2

[5] = Steady-state kinetics of TS-PTDH variants with NADP^+; format: biochemical; conditions: 100 mM MOPS, pH 7.25, 10 mM sodium phosphite, varied cofactor concentrations; n = 3
Protocol: as §1, §2

[6] = BNA(H)-mediated PTDH biotransformation with TsOYE; format: biochemical; conditions: 0, 5, 10, or 20 mM BNA^+
Protocol: BNA(H)-Mediated PTDH Biotransformation. Reactions with BNA^+, see FIG. 10D, contained 100 mM MOPS-NaOH at pH 7.6, 10 mM KIP, 100 mM sodium phosphite, and 2% v/v DMSO. BNA^+Cl^−, prepared by refluxing equimolar amounts of nicotinamide and benzyl chloride in acetonitrile overnight, followed by precipitation with diethyl ether on ice was supplied to the reactions at final concentrations of 0, 5, 10, or 20 mM. Reactions were initiated by spiking TsOYE and the appropriate TS-PTDH variant to a final concentration of 10 μM, each. Reaction mixtures were incubated at 30° C. on a Thermomixer C (Eppendorf) with shaking at 900 rpm for 24 h, extracted with 500 μL ethyl acetate containing 5 mM n-dodecane, and analyzed by GC-FID. The cycling system with no BNA was used to determine the background activity of the cycling systems. This value was subtracted from the final levodione concentrations in the 5-, 10-, and 20-mM samples to determine the BNA(H)^− specific levodione production. Concentrations of levodione product were determined using a calibration line (0-10 mM, 6 levels, using n-dodecane as internal standard). The y-intercept of the calibration line was forced through 0.
For BNA(H)-mediated reactions, gas chromatography analyses were performed on a GC-2010 (Shimadzu, Japan) equipped with an AOC-20i auto injector and a flame ionization detector (FID), using a CP-Sil 5 column (25 m×0.25 mm×[…]). 1 μL of sample was injected with a split ratio of 100:1 and injector at 340° C. The FID was maintained at 360° C. Nitrogen was used as the carrier gas, with a linear velocity of 30 cm/s. The oven was held at 135° C. for 1 min, ramped at 15° C./min to 215° C., then 30° C./min to 345° C., and held at 345° C. for 1 min.
Expression and Purification of Proteins for BNA(H)-Mediated Biotransformation Reactions. E. coli BL21(DE3) strains were transformed with the plasmids containing the TS-PTDH variants and grown on LB-agar plates containing ampicillin at 37° C. overnight. An overnight culture, 15 mL LB supplemented with ampicillin, was inoculated with a single colony, and grown at 37° C., 170 rpm overnight. 2 L baffled shake-flasks with 250 mL of 2×YT media containing 200 μg/mL ampicillin, were inoculated with the overnight culture, grown at 37° C., 170 rpm until OD600 of ˜1.0, induced with IPTG (0.5 mM), and grown at 30° C. and 170 rpm for 24 h. Cells were harvested by centrifugation at 18,000×g, 4° C., 10 min and stored at −20° C. until purification.
The pellet was resuspended in four volumes loading buffer (50 mM sodium phosphate, 300 mM sodium chloride, 10 mM imidazole, pH 7.7), and lysed on ice by sonication (Branson sonifier 250; 15 min total, 40% duty cycle, output control 3.5, 2 mm tip). The lysate was clarified (21,000×g, 4° C., 30 min followed by 0.2 μm filtration), and loaded (1 mL/min) onto a Nickel-HisTrap FF crude (1 mL) column, washed with loading buffer (12 column volumes, CV), followed by a step with 10% elution buffer (loading buffer containing 250 mM imidazole; 12 CV). The protein was then eluted with 100% elution buffer and collected in fractions of 0.5 mL. Fractions containing protein were combined and dialyzed against ice-cold dialysis buffer (50 mM sodium phosphate, pH 7.7, 800 mL); the buffer was renewed after the first 2 h of dialysis. Following the dialysis, the protein was mixed with glycerol (20% v/v final concentration). Enzyme concentrations were estimated by the absorbance at 280 nm (non-denatured protein), using predicted extinction coefficients (wild type and LY-13: 26470, LY-7: […]; web.expasy.org/protparam/). The protein was aliquoted, flash frozen in liquid nitrogen, and stored at −80° C. until use. […]

[7] = reported values; cited from earlier work

Row | Molecule | NMN^+-dependent specific activity [1] [nmol/min/mg] | Km [2] [µM] | NAD^+ kcat [2] [s⁻¹] | growth restoration, co-expression with NMNH-specific Gor Ortho [3] | growth, co-expression with wild type Ec Gor [3] | Km [4] [µM] | Km [5] [µM] | NADP^+ kcat [5] [s⁻¹] | response of biotransformation efficiency to BNA^+ concentration [6] | TTN with NAD^+ [7]
1 | B1 | 53.0 ± 3.4 | 60 ± 10 | 1.03 ± 0.01 | grew poorly | supported cell growth | > 5000 | 740 ± 40 | 0.57 ± 0.01 | cofactor dose-dependent response | 
2 | B2 |  |  |  |  |  |  |  |  |  | 80,000

Reference: patent US20230322857A1, “RECOMBINANTLY ENGINEERED POLYPEPTIDES CAPABLE OF RECYCLING NONCANONICAL COFACTORS” (The Regents of the University of California, priority 2022, published 2023)
